Assay results: the supplement of paper PMC10567573

B1: PKD2L1 (parent)
chain: SGPEAARAGGWVSGEEFYMLTRRV

Variants of: B1
Assay: protein stability index of a GFP-peptide fusion (GPS, HEK-293T) (PSI 1-6); higher = more stable
Details: c terminus: a fixed tail appended
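Note: lentivirally expressed fusions sorted by FACS into six bins by GFP to DsRed ratio, PSI derived from sequencing read proportions per bin multiplied by bin number.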

Row | Variant | protein stability index
1 | SGPEAARAGVWVSGEEFYMLTRRV [G10V] | 1.72
2 | SGPEAARAGLWVSGEEFYMLTRRV [G10L] | 2.17
3 | SGPEAARAGHWVSGEEFYMLTRRV [G10H] | 3.21
4 | SGPEAARAGSWVSGEEFYMLTRRV [G10S] | 2.32
5 | SGPEAARAGNWVSGEEFYMLTRRV [G10N] | 2.55
6 | SGPEAARAGDWVSGEEFYMLTRRV [G10D] | 3.01
7 | SGPEAARAGTWVSGEEFYMLTRRV [G10T] | 2.73
8 | SGPEAARAGQWVSGEEFYMLTRRV [G10Q] | 2.91
9 | SGPEAARAGYWVSGEEFYMLTRRV [G10Y] | 1.79
10 | SGPEAARAGAWVSGEEFYMLTRRV [G10A] | 2.22
11 | SGPEAAMAGGWVSGEEFYMLTRRV [R7M] | 2.64
12 | SGPEAAIAGGWVSGEEFYMLTRRV [R7I] | 2.11
13 | SGPEAAQAGGWVSGEEFYMLTRRV [R7Q] | 3.04
14 | SGPEAAEAGGWVSGEEFYMLTRRV [R7E] | 2.75
15 | SGPEAALAGGWVSGEEFYMLTRRV [R7L] | 2.58
16 | SGPEAATAGGWVSGEEFYMLTRRV [R7T] | 2.44
17 | SGPEAAKAGGWVSGEEFYMLTRRV [R7K] | 2.72
18 | SGPEAAYAGGWVSGEEFYMLTRRV [R7Y] | 2.31
19 | SGPEAAWAGGWVSGEEFYMLTRRV [R7W] | 2.6
20 | SGPEAAGAGGWVSGEEFYMLTRRV [R7G] | 2.24
21 | SGPEAAPAGGWVSGEEFYMLTRRV [R7P] | 2.68
22 | SGPEAAVAGGWVSGEEFYMLTRRV [R7V] | 2.56
23 | SGPEAANAGGWVSGEEFYMLTRRV [R7N] | 2.44
24 | SGPEAAFAGGWVSGEEFYMLTRRV [R7F] | 2.9

Row | Variant | protein stability index
25 | SGPEAASAGGWVSGEEFYMLTRRV [R7S] | 2.42
26 | SGPEVARAGGWVSGEEFYMLTRRV [A5V] | 3.28
27 | SGPEGARAGGWVSGEEFYMLTRRV [A5G] | 3.07
28 | SGPEWARAGGWVSGEEFYMLTRRV [A5W] | 2.06
29 | SGPECARAGGWVSGEEFYMLTRRV [A5C] | 1.98
30 | SGPEDARAGGWVSGEEFYMLTRRV [A5D] | 2.71
31 | SGPERARAGGWVSGEEFYMLTRRV [A5R] | 2.4
32 | SGPEHARAGGWVSGEEFYMLTRRV [A5H] | 2.03
33 | SGPEYARAGGWVSGEEFYMLTRRV [A5Y] | 2.18
34 | SGPEKARAGGWVSGEEFYMLTRRV [A5K] | 1.96
35 | SGPEQARAGGWVSGEEFYMLTRRV [A5Q] | 2.45
36 | SGPEMARAGGWVSGEEFYMLTRRV [A5M] | 2.58
37 | SGPEPARAGGWVSGEEFYMLTRRV [A5P] | 2.2
38 | SGPEFARAGGWVSGEEFYMLTRRV [A5F] | 2.24
39 | SGPELARAGGWVSGEEFYMLTRRV [A5L] | 2.19
40 | SGPEEARAGGWVSGEEFYMLTRRV [A5E] | 2.32
41 | SGPENARAGGWVSGEEFYMLTRRV [A5N] | 2.18
42 | SGPESARAGGWVSGEEFYMLTRRV [A5S] | 1.96
43 | SGPETARAGGWVSGEEFYMLTRRV [A5T] | 1.82
44 | SGPEIARAGGWVSGEEFYMLTRRV [A5I] | 2.33
45 | SGPNAARAGGWVSGEEFYMLTRRV [E4N] | 2.64
46 | SGPGAARAGGWVSGEEFYMLTRRV [E4G] | 2.42
47 | SGPIAARAGGWVSGEEFYMLTRRV [E4I] | 2.02
48 | SGPRAARAGGWVSGEEFYMLTRRV [E4R] | 2.44

Row | Variant | protein stability index
49 | SGPFAARAGGWVSGEEFYMLTRRV [E4F] | 1.71
50 | SGPWAARAGGWVSGEEFYMLTRRV [E4W] | 1.3
51 | SGPMAARAGGWVSGEEFYMLTRRV [E4M] | 2.35
52 | SGPSAARAGGWVSGEEFYMLTRRV [E4S] | 3.46
53 | SGPLAARAGGWVSGEEFYMLTRRV [E4L] | 1.6
54 | SGPDAARAGGWVSGEEFYMLTRRV [E4D] | 2.59
55 | SGPVAARAGGWVSGEEFYMLTRRV [E4V] | 1.56
56 | SGPPAARAGGWVSGEEFYMLTRRV [E4P] | 2.08
57 | SGPTAARAGGWVSGEEFYMLTRRV [E4T] | 1.78
58 | SGPCAARAGGWVSGEEFYMLTRRV [E4C] | 1.81
59 | SGPYAARAGGWVSGEEFYMLTRRV [E4Y] | 1.92
60 | SGPKAARAGGWVSGEEFYMLTRRV [E4K] | 1.94
61 | SGPHAARAGGWVSGEEFYMLTRRV [E4H] | 2.28
62 | SGPQAARAGGWVSGEEFYMLTRRV [E4Q] | 1.57
63 | SGPEAARAGGWMSGEEFYMLTRRV [V12M] | 2.25
64 | SGPEAARAGGWRSGEEFYMLTRRV [V12R] | 2.86
65 | SGPEAARAGGWKSGEEFYMLTRRV [V12K] | 2.47
66 | SGPEAARAGGWDSGEEFYMLTRRV [V12D] | 2.91
67 | SGPEAARAGGWISGEEFYMLTRRV [V12I] | 2.2
68 | SGPEAARAGGWWSGEEFYMLTRRV [V12W] | 2.28
69 | SGPEAARAGGWLSGEEFYMLTRRV [V12L] | 2.6
70 | SGPEAARAGGWTSGEEFYMLTRRV [V12T] | 2.31
71 | SGPEAARAGGWGSGEEFYMLTRRV [V12G] | 3.15
72 | SGPEAARAGGWPSGEEFYMLTRRV [V12P] | 2.31

Row | Variant | protein stability index
73 | SGPEAARAGGWCSGEEFYMLTRRV [V12C] | 2.46
74 | SGPEAARAGGWESGEEFYMLTRRV [V12E] | 3.52
75 | SGPEAARAGGWASGEEFYMLTRRV [V12A] | 2.51
76 | SGPEAARAGGWFSGEEFYMLTRRV [V12F] | 2.12
77 | SGPEAARAGGWNSGEEFYMLTRRV [V12N] | 2.73
78 | SGPEAARAGGWHSGEEFYMLTRRV [V12H] | 1.84
79 | SGPEAARAGGWYSGEEFYMLTRRV [V12Y] | 1.96
80 | SGPEAARAGGWSSGEEFYMLTRRV [V12S] | 3.38
81 | SGPEAARAGGWQSGEEFYMLTRRV [V12Q] | 2.49
82 | SGPEAARAGGWVHGEEFYMLTRRV [S13H] | 2.74
83 | SGPEAARAGGWVEGEEFYMLTRRV [S13E] | 3.15
84 | SGPEAARAGGWVAGEEFYMLTRRV [S13A] | 1.96
85 | SGPEAARAGGWVPGEEFYMLTRRV [S13P] | 2.78
86 | SGPEAARAGGWVDGEEFYMLTRRV [S13D] | 3.01
87 | SGPEAARAGGWVGGEEFYMLTRRV [S13G] | 2.19
88 | SGPEAARAGGWVKGEEFYMLTRRV [S13K] | 2.05
89 | SGPEAARAGGWVCGEEFYMLTRRV [S13C] | 2.08
90 | SGPEAARAGGWVNGEEFYMLTRRV [S13N] | 2.26
91 | SGPEAARAGGWVMGEEFYMLTRRV [S13M] | 2.14
92 | SGPEAARAGGWVFGEEFYMLTRRV [S13F] | 2.44
93 | SGPEAARAGGWVLGEEFYMLTRRV [S13L] | 1.77
94 | SGPEAARAGGWVIGEEFYMLTRRV [S13I] | 1.47
